Assay results from patent publication US20260144882A1, “ANTI-NECTIN-4 ANTIBODY DRUG CONJUGATE AND USE THEREOF” (Bio-Thera Solutions, Ltd., priority 2022, published 2026).
Numbering of substitutions follows the chain as printed.

T1: hNectin-4-His (human Nectin-4 extracellular antigen) (Homo sapiens, UniProt Q96NY8)
T1 construct: made in house
T1 sequence (Q96NY8 with tags, fused parts or gaps): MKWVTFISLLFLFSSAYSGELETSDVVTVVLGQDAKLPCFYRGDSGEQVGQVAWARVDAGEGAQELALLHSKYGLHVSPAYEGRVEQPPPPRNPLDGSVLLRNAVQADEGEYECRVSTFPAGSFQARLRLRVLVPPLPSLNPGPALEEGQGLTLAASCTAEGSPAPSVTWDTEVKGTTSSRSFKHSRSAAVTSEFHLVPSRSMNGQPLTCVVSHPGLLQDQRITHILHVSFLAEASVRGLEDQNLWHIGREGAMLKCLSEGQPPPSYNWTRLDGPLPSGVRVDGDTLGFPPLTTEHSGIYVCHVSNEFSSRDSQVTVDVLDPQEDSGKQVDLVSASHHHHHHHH

B1: 1G8-1G3: VH SEQ ID NO: 98 (antibody, V domains shown)
VH: EVQLVESGGGLVQPGGSLRLSCAASGFNFGTYAMSWVRQAPGKGLEWVSRISGISAGTNYADSVKGRFTISRDNSKNTLYLQMNSLRAEDTAVYYCARQTEDRSYGYDLDYWGQGTLVTVSS
B2: 1G8-2B3: VH SEQ ID NO: 109 (antibody, V domains shown)
VH: B1 VH with F27Y, G30T, Y32S, S52Y, G53Q, I54D, A56S, G57T, N59D
B3: 1G8-1E10: VH SEQ ID NO: 90 (antibody, V domains shown)
VH: B1 VH with F27D, N28S, G30S, I54S, S55G, A56D, T58K, N59D

What follows are molecules tested against T1, hNectin-4-His (human Nectin-4 extracellular antigen) (assay: SPR (BIAcore) affinity assay). Settings: Table 13.
Type: binding
Description: In this study, the affinity of the antibodies for the human Nectin-4 extracellular antigen was detected by surface plasmon resonance (SPR) technique (BIAcore: GE Healthcare, T200).
Capture was performed using a Protein A chip (Cat #29127556, GE Healthcare), and 5 µg/mL antibody dilutions (in HBS-EP+(10×): GE Healthcare, Cat #BR-1006-69, with a working concentration of 1×) were directed through the experimental flow channels (Fc2 and Fc4) at a flow rate of 10 μL/min for 10 s; then, the flow rate was adjusted to 30 μL/min, the hNectin-4-His dilutions at different concentrations (0 nM, 1.23 nM, 3.7 nM, 11.1 nM, 33.3 nM, and 100 nM) were sequentially added, and simultaneously directed through the surfaces of the experimental flow channels (Fc2 and Fc4) and reference flow channels (Fc1 and Fc3) with an association time of 120 s and a dissociation time of 180 s, and finally, the chip was regenerated in Glycine 1.5.

Molecule	ka [M⁻¹ s⁻¹]	kd [s⁻¹]
B1	471000	0.00141
B2	742000	0.00147
B3	665000	0.00087
